Results as given in US20260167679A1, “FUSION PROTEIN TARGETING MITOCHONDRIA, METHOD OF MAKING AND USE THEREOF” (UNIVERSITY OF ROCHESTER, priority 2020, published 2026).

Tests used:
[1] = system: isolated C. elegans mitochondria; assay: Mitochondrial matrix pH measurement (BCECF-AM); type: biochemical, Caenorhabditis elegans; details: mtON activation by light
Protocol: The ratiometric pH indicator BCECF-AM (Thermo Fisher, B1170) was used to measure pH changes in the mitochondrial matrix in response to succinate respiration or mtON activation. Isolated mitochondria (˜200 μl per isolation) were incubated at room temperature with 50 μM BCECF-AM for 10 min with periodic mixing. Mitochondria were then pelleted at 7,000 g for 5 min at 4° C., and isolation media replaced and pelleted again to remove extramitochondrial BCECF-AM. Isolated mitochondrial suspensions were then assayed under the same conditions as in the mitochondrial membrane potential measurements described above. Ratiometric fluorescent signal was measured by Cary Eclipse Fluorescence Spectrophotometer (Agilent Technologies) using 440 and 490 nm excitation wavelengths and 545 nm emission. The fluorescence intensity ratio at 545 nm of 490/440 nm excitation wavelengths was used to represent pH changes in the mitochondrial matrix. Light treatment was 0.16 J/cm^2 (XCite LED, 0.02 mW/mm^2), and 2 μM FCCP was used at the end of each trace to establish baseline signal.

AMPK = assay: Immunoblot of phosphorylated AMPK; type: in vivo, Caenorhabditis elegans; details: animals removed from food, mtON activation
Protocol: Synchronized young adult animals were exposed to 1 Hz light (Quantum LED, 0.02 mW/mm2) for 4 h, and immediately harvested with ice-cold M9 media and centrifuged at 1,000×g for 1 min. Animals were ground by plastic pestle disruption in lysis buffer (20 mM Tris-HCl, 100 mM NaCl, 1 mM EDTA, 1 mM DTT, 10% glycerol, 0.1% SDS, pH 7.6, 1×Halt™ protease inhibitor cocktail, Thermo78429) and diluted 1:1 in sample loading buffer (100 mM Tris-HCl, 10% v/v glycerol, 10% SDS, 0.2% w/v bromophenol blue, 2% v/v b-mercaptoethanol). These samples were heated at 95° C. for 5 min. Isolated mitochondrial samples were prepared as described above and diluted 1:1 in sample loading buffer with 1% SDS. […] samples were loaded to 7.5% polyacrylamide gels and separated by SDS-PAGE. Proteins were transferred to nitrocellulose membranes and blocked in 5% non-fat milk/TBST (50 mM Tris, 150 mM NaCl, 0.05% Tween 20, pH 8.0) for 1 h at room temperature. Membranes were incubated at 4° C. in primary antibodies diluted 1:1,000 in 5% bovine serum albumin:anti-GFP (ClonTech Living Colours #ab632375), anti-ATP5a (Abcam, #ab14748), 1:60 anti-HSP60 (Department of Biology, Iowa City, IA 52242; Developmental Studies Hybridoma Bank, University of Iowa Department of Biology, Iowa City, IA 52242), […], anti-Actin (Abcam #ab14128), and 1:10,000 antiphospho-AMPKa Rabbit (Cell Signaling, #2535). […]

C. elegans = assay: Hypoxia and reoxygenation with hypoxic preconditioning; type: in vivo, Caenorhabditis elegans; details: mtON activation during the short hypoxia (PC)
Protocol: Experiments were carried out using a hypoxic chamber (Coy Laboratory Products, 5%/95% H2/N2 gas, palladium catalyst) at 26° C. with 50-100 animals per plate. O2 was <0.01%. Hypoxic preconditioning (PC) duration was 4 h, and control animals were incubated at 26° C. in room air for the same time. 1 Hz illumination (Quantum LED, 0.02 mW/mm^2) was carried out during PC period or during the hypoxic period. Hypoxic exposure was for 18.5, 21 h after PC. Twenty-four hours after hypoxia exposure, animals that were moving or those that moved in response to a light touch to the head were scored as alive. Data from days where PC was at least 15% effective for both +ATR and −ATR were used. Animals supplemented with ATR were allowed to lay eggs onto plates with no ATR that were subsequently used for HR experiments to minimize confounding effects of ATR. ATR from the parent animal was sufficient to provide active mtON in progeny as tested by the azide toxin assay described above. […] FCCP dissolved in ethanol was deposited onto seeded NGM plates.

HEK293T cells = assay: Luciferase-based ATP assay in HEK293T cells; type: cell-based; details: 590 nm light, with or without 2-DG, vs cells in the dark
Protocol: (A) HEK293T cells expressing mtOn or GFP were illuminated with 590 nm light for 2 hours, followed by a luciferase-based ATP assay. (B) Same set-up as in (A), except HEK293T cells were treated with 10 mM 2-DG for 2 hours prior to illumination. (C) Activated CD8+ T cells were sorted based on GFP expression. GFP negative cells were used as the mock control. CD8+ T cells received 590 nm light for 30 minutes, followed by a luciferase-based ATP assay. All data shown as mean±SEM and analyzed by an unpaired t-test (n=4-7).
To test whether mitochondrial polarization driven by light-activated proton transport leads to enhanced ATP production (FIG. 9, panel A), the study transfected HEK293T cells and mouse CD8+ T cells with mtON, illuminated the cells (590±10 nm, 0.32 mW/mm^2 at 1 Hz), and immediately lysed them to detect ATP. 2-Deoxy-D-glucose (2-DG), a glucose analog, was used to inhibit glycolysis and thus mimic the glucose-deficient TME.
To test whether the mitochondrial polarization driven by light-activated proton transport leads to enhanced ATP production, we transfected HEK293T cells and mouse CD8+T cells with mtON, illuminated (590±10 nm, 0.32 mW/mm^2 at 1 Hz) them, and immediately lysed to detect ATP. 2-Deoxy-D-glucose (2-DG), a glucose analog, was used to inhibit glycolysis and thus mimic the glucose-deficient tumor microenvironment.

Drosophila melanogaster = assay: Drosophila lifespan; type: in vivo; details: activation of mtON (ATR, white light)
From the text: (C) White light increases the lifespan of mtON+ATR (red) Drosophila compared to vehicle (ethanol, blue) Drosophila.

B1: mtON: fusion of the 187 N-terminal amino acids of mouse IMMT1 to the light-activated proton pump (Mac) from Leptosphaeria maculans (protein)
chain: MLRACQLSGVTVAAQSCLCGKFVLRPLRPCRRYSTSSSSGLTAGKIAGAGLLFVGGGIGGTILYAKWDSHFRESVEKTIPYSDKLFGMVLGSAPYTVPLPKKPVQSGPLKISSVSEVMKDSKLPVAQSQKTKGDTPASAASTGAAQIISAAGDTLSVPAPAVQHEDTIKTECPNTNEGKSTSETTEEPAGLIVDQFEEVLMKTSQLFPLPTATQSAQPTHVAPVPTVLPDTPIYETVGDSGSKTLWVVFVLMLIASAAFTALSWKIPVNRRLYHVITTIITLTAALSYFAMATGHGVALNKIVIRTQHDHVPDTYETVYRQVYYARYIDWAITTPLLLLDLGLLAGMSGAHIFMAIVADLIMVLTGLFAAFGSEGTPQKWGWYTIACIAYIFVVWHLVLNGGANARVKGEKLRSFFVAIGAYTLILWTAYPIVWGLADGARKIGVDGEIIAYAVLDVLAKGVFGAWLLVTHANLRESDVELNGFWANGLNREGAIRIGEDDGAR
modifications: Synthetic Complete mtON fusion protein sequence
With B1 as the molecule, how does the “mitochondrial matrix pH (BCECF-AM ratio)” value [1] read?
The value was “matrix pH increased”.

What about the AMPK phosphorylation (AMPK) of the same molecule?
Its AMPK phosphorylation is “prevented this phosphorylation”.

What about the “protection conferred by hypoxic preconditioning” value (C. elegans) of the same molecule?
The value was “suppressed”.

What about the ATP (HEK293T cells) of the same molecule?
Its ATP is “significant increase in ATP”.

And the lifespan (Drosophila melanogaster)?
Its lifespan is “extends Drosophila lifespan”.
